How the values were obtained:
[1] = molecular target: vascular endothelial growth factor receptor 1 (VEGFR1) (UniProt P17948); assay: SPR (Biacore X), VEGFR1 immobilised on a CM5 chip per paragraph 186; four sensorgrams with fitted curves
[2] = molecular target: vascular endothelial growth factor receptor 1 (VEGFR1) (UniProt P17948); assay: SPR (Biacore X), VEGFR1 immobilised on a CM5 chip per paragraph 186; compared with the linear peptide CQRPPR at 1 mM

Sequence of vascular endothelial growth factor receptor 1 (VEGFR1) (P17948 27-756 limits assumed): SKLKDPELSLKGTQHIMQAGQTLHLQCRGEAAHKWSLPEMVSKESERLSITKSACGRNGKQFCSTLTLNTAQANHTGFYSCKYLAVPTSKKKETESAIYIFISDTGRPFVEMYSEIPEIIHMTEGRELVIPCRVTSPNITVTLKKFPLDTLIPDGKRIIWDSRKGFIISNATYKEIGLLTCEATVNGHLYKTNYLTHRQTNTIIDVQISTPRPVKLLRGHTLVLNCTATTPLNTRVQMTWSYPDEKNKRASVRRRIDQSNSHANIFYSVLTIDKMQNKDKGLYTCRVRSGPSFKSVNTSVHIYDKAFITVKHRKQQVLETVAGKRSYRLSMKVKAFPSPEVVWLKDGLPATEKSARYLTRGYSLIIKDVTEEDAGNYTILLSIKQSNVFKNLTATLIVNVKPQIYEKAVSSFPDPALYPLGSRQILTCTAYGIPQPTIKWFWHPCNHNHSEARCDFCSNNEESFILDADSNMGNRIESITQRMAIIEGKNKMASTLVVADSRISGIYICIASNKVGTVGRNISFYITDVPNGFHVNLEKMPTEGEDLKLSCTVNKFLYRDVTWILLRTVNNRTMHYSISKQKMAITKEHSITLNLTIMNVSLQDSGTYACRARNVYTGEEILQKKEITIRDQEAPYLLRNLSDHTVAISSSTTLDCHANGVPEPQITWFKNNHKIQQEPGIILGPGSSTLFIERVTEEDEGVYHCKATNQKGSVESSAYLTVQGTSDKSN

bipodal peptide drawn as CQRPPR-GGG-[W--W hairpin]-G-RIPKNR
Kd [1]: 0.212 µM | fold increase in affinity [2]: > 10000 fold

From patent US20150330991A1, “METHOD FOR IMPROVING TARGET AFFINITY OF PEPTIDE” (GWANGJU INSTITUTE OF SCIENCE AND TECHNOLOGY, priority 2012, published 2015)
